These results are taken from PMC9240080 (Nature Communications, 2022).

For this assay, the target named is SARS-CoV RBD-His8-SpyTag003 (SARS-CoV, UniProt P59594, heterogeneous N-linked glycosylation). In words: ELISA. The note with it: both partners purified. Background: An ELISA detects its analyte on a solid surface through an enzyme-linked reagent.

B1: EY6A (antibody, V domains shown)
VH: EVQLVESGGGVVQPGRSLRLSCAASAFTFSSYDMHWVRQAPGKGLEWVAVISYDGSNKYYADSVKGRFTISRDNSKNTLYLQMNSLRAEDTAVYYCAKDGGKLWVYYFDYWGQGTLVTVSS
VL: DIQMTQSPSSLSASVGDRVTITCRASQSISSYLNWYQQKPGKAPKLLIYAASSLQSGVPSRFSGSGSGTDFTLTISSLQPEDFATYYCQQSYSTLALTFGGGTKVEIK
Turning to B1, the binding result is “binds”.
